We go through 45 variants from the Human Domainome abundance scans (Beltran et al. 2025).

Sequences and labels used below:
B1: Dystrobrevin alpha, residues 235 to 294; numbered along this chain, Q9Y4J8 (parent)
chain: ENVFHPVECSYCHSESMMGFRYRCQQCHNYQLCQDCFWRGHAGGSHSNQHQMKEYTSWKS

± gives the uncertainty stated by the source.

In the data set the parent is B1. In words: abundance fitness (aPCA) (normalised: wild type 0, dead -1); higher = more abundant; growth selection in yeast, the domain comes from the species named. As to conditions: Homo sapiens.
Turning to ENVFHPVECSYCHSESMMGFRYRCQQCHNYQLCQDCFCRGHAGGSHSNQHQMKEYTSWKS [W38C], the abundance fitness worked out at 0.215 ± 0.066.
Regarding ENVFHPVECSYCHSESMMGFRYRCQQCHNYQLCQDCFRRGHAGGSHSNQHQMKEYTSWKS [W38R], the abundance fitness was found to be 0.364 ± 0.054.
Regarding ENVFHPVECSYCHSESMMGFRYRCQQCHNYQLCQDCFLRGHAGGSHSNQHQMKEYTSWKS [W38L], the abundance fitness is 0.167 ± 0.083.
Under ENVFHPVECSYCHSESMMGFRYRCQQCHNYQLCQDCFARGHAGGSHSNQHQMKEYTSWKS [W38A] stands 0.305 ± 0.074; under ENVFHPVECSYCHSESMMGFRYRCQQCHNYQLCQDCFVRGHAGGSHSNQHQMKEYTSWKS [W38V], 0.13 ± 0.1; under ENVFHPVECSYCHSESMMGFRYRCQQCHNYQLCQDCFSRGHAGGSHSNQHQMKEYTSWKS [W38S], 0.343 ± 0.059.
Under ENVFHPVECSYCHSESMMGFRYRCQQCHNYQLCQDCFPRGHAGGSHSNQHQMKEYTSWKS [W38P] stands -0.146 ± 0.082; under ENVFHPVECSYCHSESMMGFRYRCQQCHNYQLCQDCFKRGHAGGSHSNQHQMKEYTSWKS [W38K], 0.191 ± 0.13.
Under ENVFHPVECSYCHSESMMGFRYRCQQCHNYQLCQDCFMRGHAGGSHSNQHQMKEYTSWKS [W38M] stands 0.37 ± 0.086.
For ENVFHPVECSYCHSESMMGFRYRCQQCHNYQLCQDCFTRGHAGGSHSNQHQMKEYTSWKS [W38T], the abundance fitness turned out to be 0.349 ± 0.077.
Under ENVFHPVECSYCHSESMMGFRYRCQQCHNYQLCQDCFYRGHAGGSHSNQHQMKEYTSWKS [W38Y] stands 0.214 ± 0.11; under ENVFHPVECSYCHSESMMGFRYRCQQCHNYQLCQDCFIRGHAGGSHSNQHQMKEYTSWKS [W38I], 0.318 ± 0.12.
With ENVFHPVECSYCHSESMMGFRYRCQQCHNYQLCQDCFQRGHAGGSHSNQHQMKEYTSWKS [W38Q], the abundance fitness was found to be 0.228 ± 0.093.
In the case of ENVFHPVECSYCHSESMMGFRYRCQQCHNYQLCQDCFHRGHAGGSHSNQHQMKEYTSWKS [W38H], the abundance fitness came out at 0.014 ± 0.19.
Under ENVFHPVECSYCHSESMMGFRYRCQQCHNYQLCQDCFDRGHAGGSHSNQHQMKEYTSWKS [W38D] stands 0.288 ± 0.1.
Under ENVFHPVECSYCHSESMMGFRYRCQQCHNYQLCQDCFNRGHAGGSHSNQHQMKEYTSWKS [W38N] stands 0.308 ± 0.15; under ENVFHPVECSYCHSESMMGFRYRCQQCHNYQLCQDCFERGHAGGSHSNQHQMKEYTSWKS [W38E], 0.287 ± 0.07.
Under ENVFHPVECSYCHSESMMGFRYRCQQCHNYQLCQDCFFRGHAGGSHSNQHQMKEYTSWKS [W38F] stands 0.099 ± 0.11; under ENVFHPVECSYCHSESMMGFRYRCQQCHNYQLCQDCFWPGHAGGSHSNQHQMKEYTSWKS [R39P], -0.495 ± 0.058.
Consider ENVFHPVECSYCHSESMMGFRYRCQQCHNYQLCQDCFWHGHAGGSHSNQHQMKEYTSWKS [R39H], for which the abundance fitness came to 0.092 ± 0.062.
Under ENVFHPVECSYCHSESMMGFRYRCQQCHNYQLCQDCFWQGHAGGSHSNQHQMKEYTSWKS [R39Q] stands 0.116 ± 0.056; under ENVFHPVECSYCHSESMMGFRYRCQQCHNYQLCQDCFWGGHAGGSHSNQHQMKEYTSWKS [R39G], 0.011 ± 0.044.
Under ENVFHPVECSYCHSESMMGFRYRCQQCHNYQLCQDCFWAGHAGGSHSNQHQMKEYTSWKS [R39A] stands 0.142 ± 0.049; under ENVFHPVECSYCHSESMMGFRYRCQQCHNYQLCQDCFWEGHAGGSHSNQHQMKEYTSWKS [R39E], 0.074 ± 0.048.
For ENVFHPVECSYCHSESMMGFRYRCQQCHNYQLCQDCFWSGHAGGSHSNQHQMKEYTSWKS [R39S], the abundance fitness worked out at 0.062 ± 0.039.
Under ENVFHPVECSYCHSESMMGFRYRCQQCHNYQLCQDCFWVGHAGGSHSNQHQMKEYTSWKS [R39V] stands -0.202 ± 0.047; under ENVFHPVECSYCHSESMMGFRYRCQQCHNYQLCQDCFWIGHAGGSHSNQHQMKEYTSWKS [R39I], -0.308 ± 0.071.
Consider ENVFHPVECSYCHSESMMGFRYRCQQCHNYQLCQDCFWNGHAGGSHSNQHQMKEYTSWKS [R39N], for which the abundance fitness is 0.086 ± 0.063.
Under ENVFHPVECSYCHSESMMGFRYRCQQCHNYQLCQDCFWMGHAGGSHSNQHQMKEYTSWKS [R39M] stands -0.072 ± 0.047; under ENVFHPVECSYCHSESMMGFRYRCQQCHNYQLCQDCFWWGHAGGSHSNQHQMKEYTSWKS [R39W], -0.282 ± 0.043; under ENVFHPVECSYCHSESMMGFRYRCQQCHNYQLCQDCFWKGHAGGSHSNQHQMKEYTSWKS [R39K], 0.228 ± 0.05.
Under ENVFHPVECSYCHSESMMGFRYRCQQCHNYQLCQDCFWCGHAGGSHSNQHQMKEYTSWKS [R39C] stands -0.071 ± 0.053.
With ENVFHPVECSYCHSESMMGFRYRCQQCHNYQLCQDCFWTGHAGGSHSNQHQMKEYTSWKS [R39T], the abundance fitness was -0.107 ± 0.048.
Regarding ENVFHPVECSYCHSESMMGFRYRCQQCHNYQLCQDCFWFGHAGGSHSNQHQMKEYTSWKS [R39F], the abundance fitness is -0.34 ± 0.058.
Under ENVFHPVECSYCHSESMMGFRYRCQQCHNYQLCQDCFWYGHAGGSHSNQHQMKEYTSWKS [R39Y] stands -0.099 ± 0.066; under ENVFHPVECSYCHSESMMGFRYRCQQCHNYQLCQDCFWLGHAGGSHSNQHQMKEYTSWKS [R39L], -0.08 ± 0.032.
In the case of ENVFHPVECSYCHSESMMGFRYRCQQCHNYQLCQDCFWDGHAGGSHSNQHQMKEYTSWKS [R39D], the abundance fitness is -0.083 ± 0.071.
Under ENVFHPVECSYCHSESMMGFRYRCQQCHNYQLCQDCFWRAHAGGSHSNQHQMKEYTSWKS [G40A] stands -0.391 ± 0.1.
Under ENVFHPVECSYCHSESMMGFRYRCQQCHNYQLCQDCFWRCHAGGSHSNQHQMKEYTSWKS [G40C] stands -0.227 ± 0.11; under ENVFHPVECSYCHSESMMGFRYRCQQCHNYQLCQDCRWRGHAGGSHSNQHQMKEYTSWKS [F37R], -0.098 ± 0.051; under ENVFHPVECSYCHSESMMGFRYRCQQCHNYQLCQDCWWRGHAGGSHSNQHQMKEYTSWKS [F37W], -0.051 ± 0.093.
Under ENVFHPVECSYCHSESMMGFRYRCQQCHNYQLCQDCYWRGHAGGSHSNQHQMKEYTSWKS [F37Y] stands -0.052 ± 0.17; under ENVFHPVECSYCHSESMMGFRYRCQQCHNYQLCQDCTWRGHAGGSHSNQHQMKEYTSWKS [F37T], -0.439 ± 0.075.
Take ENVFHPVECSYCHSESMMGFRYRCQQCHNYQLCQDCVWRGHAGGSHSNQHQMKEYTSWKS [F37V]: the abundance fitness was -0.045 ± 0.071.
On to ENVFHPVECSYCHSESMMGFRYRCQQCHNYQLCQDCSWRGHAGGSHSNQHQMKEYTSWKS [F37S], for which the abundance fitness was -0.278 ± 0.051.
